Experimental data reported in publication doi:10.1101/2022.04.25.489347 (bioRxiv, 2022).

How the values were obtained:
[1] = target: T1, H2A/H2B dimer (UniProt P06897 1-130; P02281 1-126); experiment: AUC
[2] = target: T2, H3/H4 tetramer (UniProt P84233 1-136; P62799 1-103); experiment: AUC
[3] = target: the molecule itself; experiment: AUC
[4] = target: T1, H2A/H2B dimer; experiment: ITC
[5] = target: T2, H3/H4 tetramer; experiment: ITC
[6] = target: the molecule itself; experiment: crystal structure

| Binder | stoichiometry N [1] | stoichiometry N [2] | stoichiometry N [3] | Kd [4] [nM] | Kd [5] [nM] | stoichiometry N [6] |
| --- | --- | --- | --- | --- | --- | --- |
| AtFKBP43 (1-136) (domain or fragment, Arabidopsis thaliana, UniProt F4J9Q6 1-136, looked up) MAFWGVEVKPGKTFTLKNNEATGIRRLHLSQATLGHGTATNRSILQCNVGNKSPLLLCVLTPDKVDSCQLNLEFEETDEVIFSVIGPRSVHLTGYFLGRSTGFRPNDDESESFGEDIVDTDMEKGSSDDYDYSDSF | 1 | 1 | 5 | 460 ± 30 | 610 ± 40 | – |
| AtFKBP43 (1-164) (domain or fragment, Arabidopsis thaliana, UniProt F4J9Q6 1-164, looked up) MAFWGVEVKPGKTFTLKNNEATGIRRLHLSQATLGHGTATNRSILQCNVGNKSPLLLCVLTPDKVDSCQLNLEFEETDEVIFSVIGPRSVHLTGYFLGRSTGFRPNDDESESFGEDIVDTDMEKGSSDDYDYSDSFINDDDPAVRGSHVSSTDDDEISIKEMTA | 1 | 1 | 5 | 60 ± 6 | 18 ± 2 | – |
| AtFKBP43 NTD (1-96) (domain or fragment, Arabidopsis thaliana, UniProt F4J9Q6 1-96, looked up) MAFWGVEVKPGKTFTLKNNEATGIRRLHLSQATLGHGTATNRSILQCNVGNKSPLLLCVLTPDKVDSCQLNLEFEETDEVIFSVIGPRSVHLTGYF | – | – | 5 | – | – | – |
| AtFKBP43 NTD (1-110) (domain or fragment, Arabidopsis thaliana, UniProt F4J9Q6 1-110, looked up) MAFWGVEVKPGKTFTLKNNEATGIRRLHLSQATLGHGTATNRSILQCNVGNKSPLLLCVLTPDKVDSCQLNLEFEETDEVIFSVIGPRSVHLTGYFLGRSTGFRPNDDES | – | – | – | – | – | 5 |
